Here are results for 21 variants from the RNAGym collection of RNA variant scans (doi:10.1073/pnas.2313332121).

Sequences and labels used below:
B1: TPR t1 (parent)
chain: GACCAAUCUGCCCUCAGAGCUCGAGAACAUCUUCGGAUGCAGAGGAGGCAGGCUUCGGUGGCGCGAUAGCGCCAACGUCCUCAACCUCCAAUGCAUCCCACCACAUGAUGAUGCCUGAAGAGCCUUGGUUUUUUG

The variants in this series derive from B1. Put plainly: polymerase ribozyme fitness, log enrichment relative to wild type (log ratio); higher = more active; in vitro selection for triplet polymerase activity. A digest of the protocol: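 Frozen incubation at −7 °C formed the core of a single, triplicate in vitro selection round applied to PCR-built, transcribed mutant libraries of each subunit of a heterodimeric triplet polymerase ribozyme. Extended constructs were gel-excised, captured with streptavidin beads and amplified by RT-PCR, and input and output libraries were Illumina-sequenced with a filter of ≥10 input reads and ≥1 read per output. Fitness is the logarithm of genotype enrichment relative to wild-type enrichment, with inverse-variance-weighted replicate averaging, and the logarithm is base 2.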
Take GACCAAUCUGCUCUCAGAGCUGGAGAACAUCUUCGGAUGCAGAGAAGGCAGGCUUCGGUGGCGCGAUAGCGCCAACGUCCUCAACCUCCAAUGUAUCCUACCACAUGAUGAUGCCUGAAGAGCCUUGGUUUUUUG [C12U C22G G45A C94U C99U]: the “polymerase ribozyme fitness (log ratio)” value is -4.27. GACCAAUCUGCUCUCAGAGCUCGAGAACAUCUUUGGAUGCAGAGGAGGCAGGCUUCGGUGGCGCGAUAGCGACAACGUCCCCAACCUCCAAUGCAUCCCACUACAUGAGGAUGCCUGAAGAGCCUUGGUUUUUUG [C12U C34U C72A U81C C102U U109G]: the “polymerase ribozyme fitness (log ratio)” value was -5.97. Regarding GACCAAUCUGCUCUCAGAGCUCGAGAAUAUCUUCGGAUGCAGAGGAGGCAGGCUUCGGUGGCGCGAUAGCGCCAACGACCUCAACCUCCAAUGCAUCCCCCCACAUGAUGAUACCUGAAGAGCCUUGGUUUUUUG [C12U C28U U78A A100C G113A], the “polymerase ribozyme fitness (log ratio)” value was -3.61. Take GACCAAUCUGCUCUCAGAGCUCGAGAACAUCUUCGGAUGAAGAGGAGGCAGGCUUCGGUGGCGCGAUAGCGCCAACGUCCUCAACCUCCAAUGCAUCCUACCACAUGAUGAUGCCUGAAGAGCCUUGGUUUUUUG [C12U C40A C99U]: the “polymerase ribozyme fitness (log ratio)” value was -4.01. Regarding GACCAAUCUGCUCUCAGAGCUCGAGAACAUCUUAGGAUGCAGAGGAGGCAGGCUUCGGUGGCCCGAUAGCGCCAACGUCCUCAACCUCCAAUGCAUCCCACCACAUGAUGAUGCCUGAAGAGCCUUGGUUUUUUG [C12U C34A G63C], the “polymerase ribozyme fitness (log ratio)” value was -3.05. GACCAAUCUGCUCUCAGAGCUCGAGAACAUCUUAGGAUGCAGAGGAGGCAGGCUUCGGUGGCACGAUAGCGCCAACGUCCUCAACCUCCAAUGCAUCCCACCACAUGAUGAUGCCUGAAGAGCCUUGGUUUUUUG [C12U C34A G63A]: the “polymerase ribozyme fitness (log ratio)” value is -5.16. For the variant GACCAAUCUGCUCUCAGAGCUCGAGAAUAUCUUCGGAUGCAGAGGAGGCAGGGUUCGGUGGCGCGAUAGCGCCAACGUCCUCAACCUCCAAUGCAUCCCACCACAUGAUGAUGCCUGAAGAGCCUUGGACUUUUG [C12U C28U C53G U129A U130C], the “polymerase ribozyme fitness (log ratio)” value was -2.76. Regarding GACCAAUCUGCUCUCAGAGCUUGAGAACAUCUACGGAUGCAGAGGAGGCAGGCUUCGGUGGCGCGAUAGCGCCAACGUCCUCAACCUCCAAUGCAUCCCACCACAUGAUGAUGCCUGAAGAGCGUUGGUUUUUUG [C12U C22U U33A C124G], the “polymerase ribozyme fitness (log ratio)” value was -5.71.

Turning to GACCAAUCUGCUCUCAGAGCUCGAGAACAUCUUAGGAUGCAGAGGAGGCAGGCUUCGGUGGCGCGAUAGCGCCAACGUCCUCAACCUCCAAUGCAUCCCACCACAAGAUGACGCCUGAACAGCGUUGAUUUUUUG [C12U C34A U106A U112C G120C C124G G128A], the “polymerase ribozyme fitness (log ratio)” value was -5.07. Regarding GACCAAUCUGCUCUCAGAGCUCGAGAACAUCUUCGGAUGUAGAGGAGGCAGGCUUCGGUGGCGCGAUAGCGCCAACGUCCUCAACUUCCAAUGGAUCCCACCACAUGAUGAUGCCUGAAGAGCCUUGGUAUUUUG [C12U C40U C86U C94G U130A], the “polymerase ribozyme fitness (log ratio)” value was -3.47.

As for GACCAAUCUGCUCUCAGAGCUCGAGAACAUCUUUGGAUGCAGAGGAGGCAGGCUUCGGUGGCGCGAUAGCGCCAACGUCCUCAACCUCCAAUGCAUCCCACCACAUGAUGAUGCCUGAAGAGCCUUGGUUUUUUG [C12U C34U], the “polymerase ribozyme fitness (log ratio)” value is -3.06. GACCAAUCUGCUCUCAGAGCUCGAGAACAUCUUUGGAUGCAGAGGAGGCAGGCUUCGGUGGCGCGAUAGCGCCAACGUCCUCAGCAUCCAAUGCAUCCCACCACAUGAUGAUACCUGAAGAGCCUUGGUUUUUUG [C12U C34U A84G C86A G113A]: the “polymerase ribozyme fitness (log ratio)” value is -6.74.

In the case of GACCAAUCUGCUCUCAGAGCUGGAGAACAUCUUCGGAUGCAGAGGAGGCAGGCUUCGGUGGCGCGAUAGCGGCAACGUCCUCAACCUCCAAUGCAUCCCACCAAAUGAUGAUCCCUGGAGAGCCUUGGAUUUUUG [C12U C22G C72G C104A G113C A118G U129A], the “polymerase ribozyme fitness (log ratio)” value was -6.33. As to GACCAAUCUGCUCUCAGAGCUCGAGAACAUCUUCGGAUGGAGAGGAGGCGGGCUUCGGUGGCGGGAUAGCGCCAACGUCCUCAACCUCCAAUGCAUCCCACCUCAUGAUGACGCAUGGAGAGCCUUUGUUUUUUG [C12U C40G A50G C64G A103U U112C C115A A118G G127U], the “polymerase ribozyme fitness (log ratio)” value is -5.71. Then GACCAAUCUGCUCUCAGAGCUUGAGAACAUCUUCGGAUGCAGAGGUGGCAGGCUUCGGUGGCGCGAUAGCGCCAACGUCCUCAACCUCCAAUGCAUCCCACCACAUGAUGAUGCCUGAAGAGCCUUGGUUUUUUG [C12U C22U A46U], with -4.76; and GACCAAUCUGCUCUCAGAGCUUGAGAACAUCUUCGGAUGCAGAGGAGGCAGGCUUCGGUGGCGCGAUAGCGCCAACGUCCUCAACCUCCAAUGCAUCCCACCACAUGAUGAUGCCUGAAGAGCCUUGGUUUUUUG [C12U C22U], with -3.18; and GACCAAUCUGCUCUCAGAGCUCGAGAACAUCUUUGGAUGCAGAGGAGGCAGGCUUCGGUGACGCGAUAGCGCCAACGUCCUCAACCUCCAAUGCAUCCCACCAUAUGAUGAUGCCUGAAGAGCCUUGGUUUAGUG [C12U C34U G61A C104U U132A U133G], with -3.5. Consider GACCAAUCUGCUCUCAGAGCUCGAGAAAAUCUUCGGAUGUAGAGGAGGCAGGCUUCGGUGGCGCGAUAGCGCCAACGUCCUCAACCUCCAAUGCAUCCCACCACAUGAUGAUGCCUGAAGAGCCUUGGUUUUUUG [C12U C28A C40U], for which the “polymerase ribozyme fitness (log ratio)” value was -4.66. For GACCAAUCUGCUCUCAGAGCUAGAGAACAUCUUCGGAUACAGAGGAGGCAGGCUUCGGUGGCGCGAUAGCGCCAACGUCCUCAAACUCCAAUGCAUCCCACAACAUGAUGAUGCCUGAAGAGCCUUGGUUUUUUG [C12U C22A G39A C85A C102A], the “polymerase ribozyme fitness (log ratio)” value is -7.04.

For GACCAAUCUGCUCUCAGAGCUCGAGAACAUUUUCGGAUGCAGAGGAGGCAGGCUUCGGUGGCGCGAUAGCGCCAACGUCCUCAACCUCCAAUGCAUCCCACCACAUGAUGAUGCCUGAAGAGCCUUGGUUUUUUG [C12U C31U], the “polymerase ribozyme fitness (log ratio)” value was -4.34. On to GACCAAUCUGCUCUCAGAGCUCGAGAACAUCUUCGGAUGGAGAGGAGGCAGGCUUCGGUGGCGCGAUAGCGGCAACGUCCUCAACCUCCAAUGCAUCCCACCACAUGAUGAUGCCUGAAGAGCCUUGGUUUUUUG [C12U C40G C72G], for which the “polymerase ribozyme fitness (log ratio)” value was -1.36.
